Assay results reported in article doi:10.1101/2022.04.29.490036.

Molecular target: S. lophii 70 S ribosome (Spraguea lophii (endogenous in spores))
Assay: cryo-EM structure

Question: Which results are given for S. lophii 70 S ribosome (complex)?
Answer: percent of particles in the monomeric class: 1.6%; stoichiometry N: 2
